The results in this text go back to EP4717714A1.

The target of this test is PD-1 antigen with murine Fc tags (human) (UniProt Q15116). Put plainly: SPR (Biacore T200), PD-1-mFc captured by anti-mouse Fc antibody, 100 nM antibody injected. In general terms: Surface plasmon resonance follows binding to a sensor surface in real time, without labels.
PD-1 antigen with murine Fc tags (human), sequence (Q15116 25-167 limits assumed): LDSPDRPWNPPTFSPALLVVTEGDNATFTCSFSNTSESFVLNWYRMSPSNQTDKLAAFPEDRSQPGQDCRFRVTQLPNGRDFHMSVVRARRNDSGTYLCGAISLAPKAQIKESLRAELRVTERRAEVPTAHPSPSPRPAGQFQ

B1: JS001 (recombinant humanized anti-PD-1 monoclonal antibody reference article, Toripalimab) (antibody, human IgG4 S228P, kappa, V domains shown)
VH: QGQLVQSGAEVKKPGASVKVSCKASGYTFTDYEMHWVRQAPIHGLEWIGVIESETGGTAYNQKFKGRVTITADKSTSTAYMELSSLRSEDTAVYYCAREGITTVATTYYWYFDVWGQGTTVTVSS
VL: DVVMTQSPLSLPVTLGQPASISCRSSQSIVHSNGNTYLEWYLQKPGQSPQLLIYKVSNRFSGVPDRFSGSGSGTDFTLKISRVEAEDVGVYYCFQGSHVPLTFGQGTKLEIKR
B1 gave a Bound antibody signal (RU) of 128 RU.
